{"source": "patent US20110223630A1", "about": "“METHOD FOR SCREENING FOR COMPOUNDS THAT INHIBIT NEURODEGENERATION” (priority 2008, published 2011)", "assay_in_all_cases": "Cell-based AP binding assay on transfected COS-1 cells", "key": {"APP": {"target": "T1, APP (Homo sapiens, UniProt P05067)", "T1 construct": "expressed in transfected cells; host or cells: COS-1", "T1 sequence (P05067 18-770)": "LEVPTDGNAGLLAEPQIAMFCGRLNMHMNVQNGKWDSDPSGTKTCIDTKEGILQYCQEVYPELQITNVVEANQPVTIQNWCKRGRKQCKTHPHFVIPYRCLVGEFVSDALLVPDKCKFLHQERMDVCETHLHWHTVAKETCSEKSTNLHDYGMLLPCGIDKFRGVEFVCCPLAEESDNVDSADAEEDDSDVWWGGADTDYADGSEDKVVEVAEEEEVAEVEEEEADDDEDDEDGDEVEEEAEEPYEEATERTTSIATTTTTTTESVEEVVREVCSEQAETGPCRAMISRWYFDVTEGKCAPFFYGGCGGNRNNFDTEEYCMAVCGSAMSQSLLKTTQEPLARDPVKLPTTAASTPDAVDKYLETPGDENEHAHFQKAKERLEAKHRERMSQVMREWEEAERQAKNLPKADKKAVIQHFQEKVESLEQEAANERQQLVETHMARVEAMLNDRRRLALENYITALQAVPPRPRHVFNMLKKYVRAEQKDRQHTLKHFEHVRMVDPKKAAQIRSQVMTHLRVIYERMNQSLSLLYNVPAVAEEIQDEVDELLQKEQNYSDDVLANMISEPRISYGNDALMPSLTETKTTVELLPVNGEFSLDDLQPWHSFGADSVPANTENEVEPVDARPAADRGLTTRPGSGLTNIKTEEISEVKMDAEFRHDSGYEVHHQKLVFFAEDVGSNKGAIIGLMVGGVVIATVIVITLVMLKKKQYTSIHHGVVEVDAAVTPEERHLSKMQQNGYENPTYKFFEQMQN", "conditions": "DR6-AP conditioned medium 1:1 with binding buffer, 90 minutes", "method": "(§1) The materials and methods used to generate the data shown in this figure are as follows. To test whether APP directly interacts with DR6 extracellular domain, a cell-based A binding assay was carried out (FIG. 14B). To generate DR6 ectodomain-A fusion protein (DR6-AP), COS-1 cells cultured in DMEM/10% FBS (Gibco) medium were transfected with 15 microgram of DR6-AP fusion expression construct using FuGene transfection reagent (Roche) according to the manufacturer protocol. Twelve hours post-transfection, COS-1 cell medium was changed to OPTI-MEM (Invitrogen). Forty-eight hours post-transfection, COS-1 cell conditioned medium containing DR6-AP proteins was collected and filtered. The amount of DR6-AP proteins in the medium was quantified according to the following procedure. 100 microliters of 2×AP buffer (prepared by adding 100 mg Para-nitrophenyl phosphate (Sigma) and 15 microliter of 1M MgCl2 to 15 ml 2M diethanolamine pH 9.8) was mixed with equal volume of transfected COS cell conditioned medium or control conditioned medium from untransfected COS-1 cells. The color of the reaction was developed over 12-15 minutes, with the O.D. being in the linear range (0.1-1). The volume of reaction was then adjusted by adding 800 microliters of distilled water and the O.D. was measured at 405 nm absorbance wavelength. The concentration in nM was calculated according to the formula (for 100 microliter): C (nM)=O.D.×100×(60/developing time)/30. For the APP AP binding assay, COS-1 cells cultured in DMEM/10% FBS (Gibco) medium in 6-well culture dishes were transfected with 2 microgram of APP expressing vector per well using FuGene transfection reagent (Roche) according to the manufacturer protocol. Two days post-transfection, cells were washed twice with the binding buffer (HBSS, Gibco Cat. No. 14175-095, with 0.2% BSA, 0.1% NaN3, 5 mM CaCl2, 1 mM MgCl2, 20 mM HEPES, pH=7.0). […]"}, "DR6 receptor": {"target": "T2, DR6 receptor (Homo sapiens, UniProt O75509)", "T2 construct": "expressed in transfected cells; host or cells: COS-1", "T2 sequence (O75509 42-655)": "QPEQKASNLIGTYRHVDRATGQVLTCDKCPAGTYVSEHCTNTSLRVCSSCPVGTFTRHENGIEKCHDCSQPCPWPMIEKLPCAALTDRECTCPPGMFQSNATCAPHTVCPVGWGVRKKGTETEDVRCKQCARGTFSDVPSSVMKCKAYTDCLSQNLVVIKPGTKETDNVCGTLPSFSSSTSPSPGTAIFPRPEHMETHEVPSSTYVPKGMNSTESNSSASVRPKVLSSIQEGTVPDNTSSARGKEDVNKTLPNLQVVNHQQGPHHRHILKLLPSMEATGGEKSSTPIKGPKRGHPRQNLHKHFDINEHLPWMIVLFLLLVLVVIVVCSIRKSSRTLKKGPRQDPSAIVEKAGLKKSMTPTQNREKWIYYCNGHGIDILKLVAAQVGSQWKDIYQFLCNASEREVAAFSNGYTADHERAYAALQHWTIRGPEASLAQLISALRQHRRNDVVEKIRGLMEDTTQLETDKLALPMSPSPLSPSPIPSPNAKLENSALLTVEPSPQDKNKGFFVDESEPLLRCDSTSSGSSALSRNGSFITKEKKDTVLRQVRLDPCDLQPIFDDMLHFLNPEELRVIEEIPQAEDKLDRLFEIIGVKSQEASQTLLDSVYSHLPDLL", "conditions": "same conditions as APP", "method": "as §1"}, "p75NTR": {"target": "T3, p75NTR (Homo sapiens, UniProt P08138)", "T3 construct": "expressed in transfected cells; host or cells: COS-1", "T3 sequence (P08138 29-427)": "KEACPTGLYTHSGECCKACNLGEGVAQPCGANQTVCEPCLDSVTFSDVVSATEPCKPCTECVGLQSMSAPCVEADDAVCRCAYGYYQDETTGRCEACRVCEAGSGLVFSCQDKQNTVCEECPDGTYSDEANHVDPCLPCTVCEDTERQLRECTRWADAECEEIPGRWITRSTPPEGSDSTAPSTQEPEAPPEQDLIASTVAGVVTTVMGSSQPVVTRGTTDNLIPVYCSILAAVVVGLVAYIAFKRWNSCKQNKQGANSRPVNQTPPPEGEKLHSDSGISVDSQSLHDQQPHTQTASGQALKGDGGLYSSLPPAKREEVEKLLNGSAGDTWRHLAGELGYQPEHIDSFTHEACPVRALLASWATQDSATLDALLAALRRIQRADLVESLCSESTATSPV", "conditions": "same conditions as APP", "method": "as §1"}}, "data": [{"molecule": "DR6-AP: mouse DR6 ectodomain fused to human placental alkaline phosphatase (protein, left off: large carriers, mouse DR6 ectodomain fused to human placental alkaline phosphatase) QPEQKTLSLPGTYRHVDRTTGQVLTCDKCPAGTYVSEHCTNMSLRVCSSCPAGTFTRHENGIERCHDCSQPCPWPMIERLPCAALTDRECICPPGMYQSNGTCAPHTVCPVGWGVRKKGTENEDVRCKQCARGTFSDVPSSVMKCKAHTDCLGQNLEVVKPGTKETDNVCGMRLFFSSTNPPSSGTVTFSHPEHMESHDVPSSTYEPQGMNSTDSNSTASVRTKVPSGIEEGTVPDNTSSTSGKEGTNRTLPNPPQVTHQQAPHHRHILKLLPSSMEATGEKSSTAIKAPKRGHPRQNAHKHFDINEH", "values": [{"measurement": "binding of DR6 ectodomain-AP to APP expressing COS cells", "setting": "APP", "result": "binds APP expressed by cultured cells"}, {"measurement": "binding of DR6 ectodomain-AP to DR6 receptor expressing cells", "setting": "DR6 receptor", "result": "does NOT bind"}, {"measurement": "binding of DR6 ectodomain-AP to p75NTR expressing cells", "setting": "p75NTR", "result": "does NOT bind"}]}]}
